Measured values from IntAct's records for PubMed 22995871.

Target: mare1_mouse Mapre1 (UniProt Q61166)
Sequence (Q61166 whole entry): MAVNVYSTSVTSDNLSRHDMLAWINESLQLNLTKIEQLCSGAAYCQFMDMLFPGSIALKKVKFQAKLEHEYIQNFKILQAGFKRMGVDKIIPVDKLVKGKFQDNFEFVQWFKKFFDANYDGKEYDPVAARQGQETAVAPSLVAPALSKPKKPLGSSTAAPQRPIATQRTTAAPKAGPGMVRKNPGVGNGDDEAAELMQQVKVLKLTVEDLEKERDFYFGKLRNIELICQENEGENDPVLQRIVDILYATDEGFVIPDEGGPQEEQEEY

Substance	effect of a mutation on the interaction
Dystonin (Homo sapiens), Q03001 D7246A	disrupting interaction
Dystonin (Homo sapiens), Q03001 D7250A	disrupting interaction
Dystonin (Homo sapiens), Q03001 D7248A	disrupting interaction
